From patent US9266940 (Novo Nordisk, dated 2016)
Numbered stars: 1 amine (or outer) side, 2 acyl side, 3 side chain; on linkers, the order of the positions; unused ones are H or OH. Square brackets hold non-standard residues; d marks the D form. Side chains are listed from the residue outwards. Ends that are not written are not given here. * marks the point of attachment. Decanoyl(10-(4-HOOC-PhO)) = O=C(O)c1ccc(OCCCCCCCCCC(=O)*)cc1; d(γGlu) = O=C(O)[C@@H](CCC(=O)[*:2])N[*:1]; γGlu = O=C(O)[C@H](CCC(=O)[*:2])N[*:1]; C14 diacid = O=C(O)CCCCCCCCCCCCC(=O)*; AEEA = NCCOCCOCC(=O)O; Aib = CC(C)(N)C(=O)O

Key:
[1] = target: T1, human GLP-1 receptor (human, UniProt P43220 24-463); assay: cell-based or functional assay
[2] = target: T1, human GLP-1 receptor; assay: SPA displacement assay; IC50 at 2.0% HSA over IC50 at 0.001% HSA
Description: (§1) A shift in the binding affinity, $IC50$, is an indication that the peptide in question binds to albumin, and thereby a prediction of a potential protracted pharmacokinetic profile of the peptide in question in animal models.
(§2) 50 ul (micro liter) HSA ("high albumin" experiment containing 2% HSA), or buffer ("low albumin" experiment containing 0.001% HSA), was added to Optiplate, and 25 ul of test compounds were added. 5-10 ug membrane protein/sample was added (50 ul) corresponding to 0.1-0.2 mg protein/ml (to be preferably optimised for each membrane preparation). SPA-particles (Wheatgerm agglutinin SPA beads, Perkin Elmer, #RPNQ0001) were added in an amount of 0.5 mg/well (50 ul). […] The plates were sealed with PlateSealer and incubated for 120 minutes at 30° C. while shaking. The plates were centrifuged (1500 rpm, 10 min) and counted in Topcounter.

[3] = target: T1, human GLP-1 receptor; assay: SPA, displacement of 125I-GLP-1(7-36)NH2 from hGLP-1R BHK membranes, high HSA (2.0%)
Description: as §1, §2

[4] = target: T1, human GLP-1 receptor; assay: SPA, displacement of 125I-GLP-1(7-36)NH2 from hGLP-1R BHK membranes, low HSA (0.001%)
Description: as §1, §2

Binder | EC50/pM (in vitro potency, cAMP formation, AlphaScreen) [1] [pM] | Ratio [(IC50/nM) high HSA]/[(IC50/nM) low HSA] [2] | IC50 [3] [nM] | IC50 [4] [nM]
HAEGTFTSDVSSYLEEQAVRK([AEEA-AEEA-γGlu-Decanoyl(10-(4-HOOC-PhO))])FIAWLVRGRK([AEEA-AEEA-γGlu-Decanoyl(10-(4-HOOC-PhO))]) | 143 | 217 | 33 | 0.15
HAEGTFTSDVSSYLEEQK([AEEA-AEEA-γGlu-Decanoyl(10-(4-HOOC-PhO))])VRK([AEEA-AEEA-γGlu-Decanoyl(10-(4-HOOC-PhO))])FIAWLVRGRG (also called 28) | 68 | 144 | 29 | 0.2
HAEGTFTSDVSSYLEGQAVRK([AEEA-AEEA-γGlu-C14 diacid])FIAHLVQGRK([AEEA-AEEA-γGlu-C14 diacid]) (also called 16) | 21 | 127 | 25 | 0.2
HAEGTFTSDVSSYLEK([AEEA-AEEA-γGlu-C14 diacid])QAVRK([AEEA-AEEA-γGlu-C14 diacid])FIEWLVQGRG (also called 11) | 81 | 926 | 213 | 0.23
HAEGTFTSDVSSYLEGQAVRK([γGlu-AEEA-AEEA-d(γGlu)-Decanoyl(10-(4-HOOC-PhO))])FIAWLVQGK([γGlu-AEEA-AEEA-d(γGlu)-Decanoyl(10-(4-HOOC-PhO))])G (also called 26) | 200 | 143 | 54 | 0.38
HAEGTFTSDVSSYLEEQK([AEEA-AEEA-γGlu-C14 diacid])VRK([AEEA-AEEA-γGlu-C14 diacid])FIAHLVRGRG (also called 24) | 70 | 18 | 50 | 2.74
HAEGTFTSDVSSYLEEEAVRK([AEEA-AEEA-γGlu-C14 diacid])FIAHLVQGRK([AEEA-AEEA-γGlu-C14 diacid]) (also called 17) | 17 | 387 | 174 | 0.45
HAEGTFTSDVSSYLEGQAVRK([AEEA-AEEA-γGlu-γGlu-Decanoyl(10-(4-HOOC-PhO))])FIAWLVQGK([AEEA-AEEA-γGlu-γGlu-Decanoyl(10-(4-HOOC-PhO))])G (also called 23) | 140 | 47 | 40 | 0.85
HAEGTFTSDVSSYLEK([γGlu-AEEA-AEEA-C14 diacid])QAVRK([γGlu-AEEA-AEEA-C14 diacid])FIEWLVQGRG (also called 20) | 67 | 1750 | 333 | 0.19
HAEGTFTSDVSSYLEEQAARK([AEEA-AEEA-γGlu-Decanoyl(10-(4-HOOC-PhO))])FIAWLVRGRK([AEEA-AEEA-γGlu-Decanoyl(10-(4-HOOC-PhO))]) | 26 | 219 | 42 | 0.19
HAEGTFTSDVSSYLEEQK([γGlu-AEEA-AEEA-C14 diacid])ARK([γGlu-AEEA-AEEA-C14 diacid])FIAHLVG (also called 22) | 1180 | 87 | 812 | 9.31
HAEGTFTSDVSSYLEEQK([AEEA-AEEA-γGlu-C14 diacid])VRK([AEEA-AEEA-γGlu-C14 diacid])FIAWLVG (also called 27) | 835 | 97 | > 1000 | 10.3
HAEGTFTSDVSSYLEEQK([γGlu-AEEA-AEEA-C14 diacid])VRK([γGlu-AEEA-AEEA-C14 diacid])FIAWLVG (also called 30) | 3000 | 134 | > 1000 | 7.44
HAEGTFTSDVSSYLEK([γGlu-AEEA-AEEA-C14 diacid])QAARK([γGlu-AEEA-AEEA-C14 diacid])FIAHLVG (also called 14) | 42 | 306 | 443 | 1.45
HAEGTFTSDVSSYLEGQAARK([AEEA-AEEA-γGlu-Decanoyl(10-(4-HOOC-PhO))])FIEWLVRGK([AEEA-AEEA-γGlu-Decanoyl(10-(4-HOOC-PhO))])GE | 96 | 246 | 123 | 0.5
HAEGTFTSDVSSYLEGQAVRK([AEEA-AEEA-γGlu-Decanoyl(10-(4-HOOC-PhO))])FIEWLVRGK([AEEA-AEEA-γGlu-Decanoyl(10-(4-HOOC-PhO))])GQ (also called 12) | 41 | 453 | 72 | 0.16
HAEGTFTSDVSSYLEEQAAHK([AEEA-AEEA-γGlu-Decanoyl(10-(4-HOOC-PhO))])FIEWLVRGK([AEEA-AEEA-γGlu-Decanoyl(10-(4-HOOC-PhO))])GE (also called 21) | 52 | 163 | 256 | 1.57
HAEGTFTSDVSSYLEGQAAHK([AEEA-AEEA-γGlu-Decanoyl(10-(4-HOOC-PhO))])FIEWLVRGK([AEEA-AEEA-γGlu-Decanoyl(10-(4-HOOC-PhO))])GE (also called 10) | 214 | 70 | 452 | 6.49
HAEGTFTSDVSSYLEGQAVRK([AEEA-AEEA-γGlu-Decanoyl(10-(4-HOOC-PhO))])FIEWLVQGK([AEEA-AEEA-γGlu-Decanoyl(10-(4-HOOC-PhO))])GE (also called 13) | 79 | 804 | 201 | 0.25
H[Aib]EGTK([AEEA-AEEA-γGlu-C14 diacid])TSDVSSYLEEQAARK([AEEA-AEEA-γGlu-C14 diacid])FIAHLVQGRG (also called 18) | 3020 | 2.1 | 789 | 373
H[Aib]EGTFTSDVSSYLEK([AEEA-AEEA-γGlu-C14 diacid])QAVRK([AEEA-AEEA-γGlu-C14 diacid])FIAHLVRGRG | 9 | 174 | 21 | 0.12
H[Aib]EGTFTSDVSSYLEGQAVRK([AEEA-AEEA-γGlu-C14 diacid])FIAHLVQGRK([AEEA-AEEA-γGlu-C14 diacid]) (also called 15) | 5 | 155 | 29 | 0.19
H[Aib]EGTFTSDVSSYLEK([AEEA-AEEA-γGlu-C14 diacid])QAARK([AEEA-AEEA-γGlu-C14 diacid])FIAHLVG (also called 19) | 52 | 60 | 143 | 2.38
